± gives the half width of the 95% confidence interval.
How the values were obtained:
[1] = folding stability dG unfold (combined trypsin and chymotrypsin); higher = more stable
Summary of the method: (§1)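 Unfolding free energy was derived, per protease or combined, by relating Bayesian-fitted K50 values from sequencing counts to a sequence-predicted unfolded-state K50 and a shared folded-state K50. The underlying digests exposed cysteine-free mini-proteins under 80 residues, in a PA-tagged cDNA display construct, to trypsin and chymotrypsin at 11 threefold-diluted concentrations and to a no-protease condition. A filter kept only designs with AlphaFold2 dimer inter-PAE above 15.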

[2] = folding stability dG unfold from trypsin proteolysis; higher = more stable
Summary of the method: as §1

[3] = folding stability dG unfold from chymotrypsin proteolysis; higher = more stable
Summary of the method: as §1

Sequence | folding stability dG unfold [1] [kcal/mol] | folding stability dG unfold [2] [kcal/mol] | folding stability dG unfold [3] [kcal/mol]
SAGGSAMKVIVTVKILDKGEVKTLTEEEAKKYLEEHPEEVKEVEVETTVESDATESFTDIDLNGLKSAGGSA [r15_99_JUSTAS] | 0.416 ± 0.23 | -0.185 ± 0.21 | 0.462 ± 0.047
SAGGSAMLIRFVRDDKTVELRPFSSIEEARAFLEKGPVEEIEPREAPGGERVTFRAKLPDGEVLVESAGGSA [r15_632_JUSTAS] | -0.542 ± 0.15 | -0.466 ± 0.23 | -0.743 ± 0.33
SAGGSAMLLIKITIETKDGEKYEIVVEAESEEEALAALKEKARELFPELSEEDVKIVDIEVYELEESAGGSA [r15_220_TrROS_Hall] | 4.29 ± 0.13 | 4.58 ± 0.25 | 4.25 ± 0.088
SAGGSAMMELEIEIKVEGMTEEELRELAERLAAELTPEGWKVVAVRVERVDEEEGVVRVTVVVEPVSAGGSA [r15_96_TrROS_Hall] | 4.18 ± 0.27 | 4.31 ± 0.35 | 3.83 ± 0.16
SAGGSAMPDNMKPVGSIPMVYLVPDGWIMRINYEYWKNPESGMWMINMDIEVFPLPKNDPELLKAISAGGSA [r15_207_TrROS] | 2.62 ± 0.18 | 2.42 ± 0.18 | 2.65 ± 0.093
SAGGSAMPEVKVEVEIIERDPENEDYVLVRIKVEVRFKTEDGEEVEVREERELLVFPSEEELKKALSAGGSA [r15_1019_TrROS_Hall] | 1.89 ± 0.33 | 2.02 ± 0.064 | 1.82 ± 0.048
SAGGSAMPILTDTVYEIPVDRSPDETEEEIKEYLKELLLKKLPPGTEVKLEVKFDPETGTVTVKVVSAGGSA [r15_739_JUSTAS] | 1.58 ± 0.12 | 1.96 ± 0.12 | 0.972 ± 0.037
SAGGSAMPKIEVTVYFPENGTETVEIHFPPGKVITGPLSLLEEIIESGIPKENISISYKTLSPSLTSAGGSA [r15_955_JUSTAS] | 1.37 ± 0.041 | 1.64 ± 0.03 | 1.05 ± 0.061
SAGGSAMPKKVVEGPVPPEDVEARIAELLEEDPNLTYVKFTYPELGSEVVIDFENGKVTKIERLLESAGGSA [r15_166_JUSTAS] | 0.108 ± 0.052 | -0.217 ± 0.1 | 0.211 ± 0.1
SAGGSAMPKYVISGIYRLPDKTLFFDYVIPPGLAENPERVKELAEEIRELLEQLGYPAVDFKIEPVSAGGSA [r15_781_TrMRF] | 1.99 ± 0.098 | 1.65 ± 0.043 | 2.09 ± 0.065
SAGGSAMPPVKVEVVEAEPFVVEGEGGLYLVRPFLVRAPDLPRLFLVVLVEDPGEPDVLAEVFDLDSAGGSA [r15_528_TrMRF] | 2.37 ± 0.099 | 1.84 ± 0.041 | 2.55 ± 0.045
SAGGSAMPVKTSTTTEGDTVTTYTLEPVGGSTTLTTTTTTVTKTNSGTTTTSTTTTTPLPTASGATSAGGSA [r15_725_JUSTAS] | -0.014 ± 0.074 | -0.0787 ± 0.022 | -0.108 ± 0.074
SAGGSAMPVVEIEIEVSEEEAEELVKKLKELFPEVEEVEVERTEDGLRIRVRVKLPPLTEEELKAKSAGGSA [r15_166_TrROS_Hall] | 1.04 ± 0.054 | 1.17 ± 0.026 | 0.987 ± 0.042
SAGGSAMRIKDVNPDNGYFRIEPPDNGKPIYELNVEAMKKAQENGDIPPWVRELLNHEPGYRIEPVSAGGSA [r15_359_TrROS] | -0.327 ± 0.15 | -0.979 ± 0.49 | -0.291 ± 0.21
SAGGSAMSEEALAEAERLVAERRAALEAAGVPVTVERVEVTVTVDTEVPTTNITVDLDVRLPDAPESAGGSA [r2_94_JUSTAS] | 0.999 ± 0.027 | -0.0861 ± 0.034 | 1.38 ± 0.024
SAGGSAMTLEFKILFPNKTKEEAIKAIEEIPEEIKKNIKKIEILKIDPVGDEVIATLKIEVDPEFLSAGGSA [r15_244_TrMRF] | 1.37 ± 0.29 | 0.723 ± 0.18 | 1.86 ± 0.24
SAGGSAMTPEEVREKAEEIAETLAAEAREAGYEVEVKAKVEGLPEKYARVTVELNGARVEVLIPLDSAGGSA [r15_432_TrMRF] | 0.125 ± 0.09 | 0.453 ± 0.059 | -0.311 ± 0.18
SAGGSAMTPVTIELPFEVEADDPEEAIKKAKELAEKLGLKPVEIKEIEVEPGNPKKVTVLMKATILSAGGSA [r15_183_JUSTAS] | 1.6 ± 0.071 | 1.74 ± 0.066 | 1.36 ± 0.049

Sequence | folding stability dG unfold [1] [kcal/mol] | folding stability dG unfold [2] [kcal/mol] | folding stability dG unfold [3] [kcal/mol]
SAGGSAMTVTTTTSVDPKTGIITTTVSVNGTPVFTGTSIVAPGGEVAETFGTYTYDPETGTVTVTGSAGGSA [r15_770_JUSTAS] | 1.43 ± 0.086 | 1.7 ± 0.067 | 1.17 ± 0.049
SAGGSAMVVRIEVDGKTIEIPAGASLEELKALLAENPGARFRIEVVEPPPPELSEEERKALEEARKSAGGSA [r15_36_TrROS_Hall] | 1.37 ± 0.1 | 1.35 ± 0.019 | 1.32 ± 0.077
SAGGSAMVVRITTKDGKKIEITVKSVEELLEALKELGVEEVKLEKLPDGKELKLTVTLKDGKIEILSAGGSA [r15_632_TrROS_Hall] | 2.92 ± 0.054 | 3.14 ± 0.087 | 2.8 ± 0.077
SAGGSAMYEVRIKIKKDGKEVEIELSLEELEELLESPELREELEIVEIEVRPLPPEELSEEELKALSAGGSA [r15_460_TrROS_Hall] | 1.06 ± 0.058 | 1.18 ± 0.028 | 0.836 ± 0.045
SAGGSANDKDGQKKKQIKPIKIELPIPPGMEIEEINPGNGMIMIRWPENGWTWMFSLDDGKIFVMDSAGGSA [r15_452_TrROS] | 1.86 ± 0.22 | 1.54 ± 0.058 | 2.13 ± 0.19
SAGGSANEILEKLGYPEENIVERKKVFKLPNGTELYEYVIPKTENGVTATILVEKTPKGVKIKVLPSAGGSA [r15_813_JUSTAS] | 0.318 ± 0.22 | -0.642 ± 0.44 | 0.414 ± 0.25
SAGGSANLAETPPVTTTETIEIKVPDPGKPLPITEEDVKKKYEGKNTKVEISVEGDKVIITITTKESAGGSA [r15_377_JUSTAS] | 0.68 ± 0.24 | 0.407 ± 0.054 | 0.871 ± 0.094
SAGGSANPKPKIEIDKIYRMPDGQVHIPIEMERYDDDGQKETYPMDVTFNVPEGKPLTPNAIKDLISAGGSA [r15_836_TrROS] | -0.693 ± 0.15 | -0.645 ± 0.064 | -0.924 ± 0.24
SAGGSANTTYIELPTNGMSDEEVKELAEELAKKLGVKLEIKPLPGEGYWVVTFTLPDSTSTIVIPGSAGGSA [r15_168_JUSTAS] | 2.41 ± 0.11 | 2.55 ± 0.11 | 2.37 ± 0.038
SAGGSANWRPIEIELMIGIKSKEQAKEWAEEIADNFPGIKDVEVEEFPDPDGHVMVAVDVKFYVPESAGGSA [r15_726_TrROS] | 0.969 ± 0.075 | 0.755 ± 0.057 | 0.999 ± 0.031
SAGGSANWVKVEVKIPGGLKIEVWVPPGMSKEENQEKAQEMADEMAQMLRQMRENRKEGKPPTIDFSAGGSA [r15_704_TrROS] | 1.66 ± 0.1 | 0.819 ± 0.08 | 2.02 ± 0.065
SAGGSAPAEKVAQTLLDLGFTEVRVEEDPETDLVTVEVIDPDGTRLEIRVDPKDPRIVEIRPRSLKSAGGSA [r15_648_TrMRF] | -0.154 ± 0.16 | -0.351 ± 0.14 | -0.0972 ± 0.15
SAGGSAPETLTIKVKNADGSTQTITLPAGATATSIEFNEDTGELTIHLEETGETITLPADEITEITSAGGSA [r15_133_TrROS_Hall] | 1.4 ± 0.11 | 1.39 ± 0.12 | 1.33 ± 0.026
SAGGSAPEVKIVDVEEVDGEVKIKVEAPPGARLLIFNRATGKWEEVEVKPGDTITLPPGALVLVEPSAGGSA [r15_418_TrROS_Hall] | 2.88 ± 0.1 | 1.77 ± 0.025 | 3.22 ± 0.035
SAGGSAPFKAELVSYDPETGVATFKLTLPDGSEVTVVATLDPDGVPHVKAYFPDGSVYDIEEILASSAGGSA [r15_832_TrMRF] | 3.59 ± 0.1 | 2.28 ± 0.076 | 3.893 ± 0.022
SAGGSAPFKIAEIESVEYDPNEGRPTIRITIEHDGRPVEIWVPPGGIQIFNMGDGEPIKEIPLDEISAGGSA [r15_85_TrROS] | 0.0268 ± 0.26 | 0.182 ± 0.25 | 0.434 ± 0.48
SAGGSAPGVITFMLPLDDIPPDPDGKWTHNEIKDHIRPFIQEAFGKDDIEIDVSPHPNGWVRITIRSAGGSA [r15_562_TrROS] | 2.69 ± 0.079 | 2.41 ± 0.074 | 2.76 ± 0.056
